In US20150344570A1 (published 2015):

T1: FcγRIIb extracellular domain with C-terminal His tag (human, UniProt P31994 43-217)
T1 construct: extracellular domain; also called FcgRIIb; 2b; not shown: His tag at the C terminus
T1 sequence (looked up): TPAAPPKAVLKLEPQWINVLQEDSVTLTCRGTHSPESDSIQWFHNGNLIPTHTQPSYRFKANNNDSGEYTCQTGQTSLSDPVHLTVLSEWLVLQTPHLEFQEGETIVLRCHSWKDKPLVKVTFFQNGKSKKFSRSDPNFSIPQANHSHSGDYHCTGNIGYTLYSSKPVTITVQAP

T2: FcγRIIa R extracellular domain with C-terminal His tag (human, UniProt P12318 34-217)
T2 construct: extracellular domain; also called FcgRIIa R; 2aR; not shown: His tag at the C terminus
T2 sequence (looked up): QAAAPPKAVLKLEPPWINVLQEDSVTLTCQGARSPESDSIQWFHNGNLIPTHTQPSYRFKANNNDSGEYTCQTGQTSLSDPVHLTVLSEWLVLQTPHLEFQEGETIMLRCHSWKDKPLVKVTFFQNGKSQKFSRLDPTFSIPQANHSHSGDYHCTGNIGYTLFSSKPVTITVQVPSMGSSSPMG


target: T1, FcγRIIb extracellular domain with …; assay: SPR, relative binding, HeCon Ab = 100
Method: (§1) Analysis of interaction between objective antibody and the FcγR was carried out using Biacore T100 (GE Healthcare). HBS-EP+ (GE Healthcare) was used as the running buffer, and the measurement temperature was set to 25° C. Chips produced by immobilizing the antigen peptide by the amine coupling method to a Series S Sencor Chip CM5 (GE Healthcare), or alternatively, chips produced by allowing preliminarily biotinylated antigen peptides to interact with and immobilize onto a Series S Sensor Chip SA (certified) (GE Healthcare) were used. Antibodies of interest were captured onto an antigen peptide-immobilized chip, and allowed to interact to each FcγR diluted with running buffer. To regenerate and repeatedly use the chip, the antibodies captured on the chip were washed off by reacting 10 mM glycine-HCl, pH 1.5.

He/Con_2b	Binder
103 % of control	GpH7-A5/GpH7-B3 variant Y296_20W/GpL16-k0 (antibody, human IgG1, kappa, also called He Ab Y296_20W) heavy 1: not shown heavy 2: not shown light: DIVMTQSPLSLPVTPGEPASISCQASESLVHSNRNTYLHWYLQKPGQSPQLLIYKVSNRFSGVPDRFSGSGSGTDFTLKISRVEAEDVGVYYCSQNTHVPPTFGQGTKVEIERTVAAPSVFIFPPSDEQLKSGTASVVCLLNNFYPREAKVQWKVDNALQSGNSQESVTEQDSKDSTYSLSSTLTLSKADYEKHKVYACEVTHQGLSSPVTKSFNRGEC
251 % of control	GpH7-A5/GpH7-B3 variant V266_06M/GpL16-k0 (antibody, human IgG1, kappa, also called He Ab V266_06M) heavy 1: not shown heavy 2: not shown light: DIVMTQSPLSLPVTPGEPASISCQASESLVHSNRNTYLHWYLQKPGQSPQLLIYKVSNRFSGVPDRFSGSGSGTDFTLKISRVEAEDVGVYYCSQNTHVPPTFGQGTKVEIERTVAAPSVFIFPPSDEQLKSGTASVVCLLNNFYPREAKVQWKVDNALQSGNSQESVTEQDSKDSTYSLSSTLTLSKADYEKHKVYACEVTHQGLSSPVTKSFNRGEC
108 % of control	GpH7-A5/GpH7-B3 variant T335_10E/GpL16-k0 (antibody, human IgG1, kappa, also called He Ab T335_10E) heavy 1: not shown heavy 2: not shown light: DIVMTQSPLSLPVTPGEPASISCQASESLVHSNRNTYLHWYLQKPGQSPQLLIYKVSNRFSGVPDRFSGSGSGTDFTLKISRVEAEDVGVYYCSQNTHVPPTFGQGTKVEIERTVAAPSVFIFPPSDEQLKSGTASVVCLLNNFYPREAKVQWKVDNALQSGNSQESVTEQDSKDSTYSLSSTLTLSKADYEKHKVYACEVTHQGLSSPVTKSFNRGEC
108 % of control	GpH7-A5/GpH7-B3 variant T335_15Y/GpL16-k0 (antibody, human IgG1, kappa, also called He Ab T335_15Y) heavy 1: not shown heavy 2: not shown light: DIVMTQSPLSLPVTPGEPASISCQASESLVHSNRNTYLHWYLQKPGQSPQLLIYKVSNRFSGVPDRFSGSGSGTDFTLKISRVEAEDVGVYYCSQNTHVPPTFGQGTKVEIERTVAAPSVFIFPPSDEQLKSGTASVVCLLNNFYPREAKVQWKVDNALQSGNSQESVTEQDSKDSTYSLSSTLTLSKADYEKHKVYACEVTHQGLSSPVTKSFNRGEC

target: T2, FcγRIIa R extracellular domain with …; assay: SPR (Biacore), relative FcγRIIa R binding, GpH7-B3/GpL16-k0 = 100
Method: as §1

Ho/Con_2aR	Binder
102 % of control	GpH7-B3 variant S337_02A/GpL16-k0 (antibody, human IgG1, kappa, homodimerized: alteration in both H chains; also called Ho Ab S337_02A) heavy: not shown light: DIVMTQSPLSLPVTPGEPASISCQASESLVHSNRNTYLHWYLQKPGQSPQLLIYKVSNRFSGVPDRFSGSGSGTDFTLKISRVEAEDVGVYYCSQNTHVPPTFGQGTKVEIERTVAAPSVFIFPPSDEQLKSGTASVVCLLNNFYPREAKVQWKVDNALQSGNSQESVTEQDSKDSTYSLSSTLTLSKADYEKHKVYACEVTHQGLSSPVTKSFNRGEC
105 % of control	GpH7-B3 variant I336_08L/GpL16-k0 (antibody, human IgG1, kappa, homodimerized: alteration in both H chains; also called Ho Ab I336_08L) heavy: not shown light: DIVMTQSPLSLPVTPGEPASISCQASESLVHSNRNTYLHWYLQKPGQSPQLLIYKVSNRFSGVPDRFSGSGSGTDFTLKISRVEAEDVGVYYCSQNTHVPPTFGQGTKVEIERTVAAPSVFIFPPSDEQLKSGTASVVCLLNNFYPREAKVQWKVDNALQSGNSQESVTEQDSKDSTYSLSSTLTLSKADYEKHKVYACEVTHQGLSSPVTKSFNRGEC
101 % of control	GpH7-B3 variant A330_12R/GpL16-k0 (antibody, human IgG1, kappa, homodimerized: alteration in both H chains; also called Ho Ab A330_12R) heavy: not shown light: DIVMTQSPLSLPVTPGEPASISCQASESLVHSNRNTYLHWYLQKPGQSPQLLIYKVSNRFSGVPDRFSGSGSGTDFTLKISRVEAEDVGVYYCSQNTHVPPTFGQGTKVEIERTVAAPSVFIFPPSDEQLKSGTASVVCLLNNFYPREAKVQWKVDNALQSGNSQESVTEQDSKDSTYSLSSTLTLSKADYEKHKVYACEVTHQGLSSPVTKSFNRGEC
133 % of control	GpH7-B3 variant K326_07I/GpL16-k0 (antibody, human IgG1, kappa, homodimerized: alteration in both H chains; also called Ho Ab K326_07I) heavy: not shown light: DIVMTQSPLSLPVTPGEPASISCQASESLVHSNRNTYLHWYLQKPGQSPQLLIYKVSNRFSGVPDRFSGSGSGTDFTLKISRVEAEDVGVYYCSQNTHVPPTFGQGTKVEIERTVAAPSVFIFPPSDEQLKSGTASVVCLLNNFYPREAKVQWKVDNALQSGNSQESVTEQDSKDSTYSLSSTLTLSKADYEKHKVYACEVTHQGLSSPVTKSFNRGEC
139 % of control	GpH7-B3 variant K326_03V/GpL16-k0 (antibody, human IgG1, kappa, homodimerized: alteration in both H chains; also called Ho Ab K326_03V) heavy: not shown light: DIVMTQSPLSLPVTPGEPASISCQASESLVHSNRNTYLHWYLQKPGQSPQLLIYKVSNRFSGVPDRFSGSGSGTDFTLKISRVEAEDVGVYYCSQNTHVPPTFGQGTKVEIERTVAAPSVFIFPPSDEQLKSGTASVVCLLNNFYPREAKVQWKVDNALQSGNSQESVTEQDSKDSTYSLSSTLTLSKADYEKHKVYACEVTHQGLSSPVTKSFNRGEC
105 % of control	GpH7-B3 variant I332_06M/GpL16-k0 (antibody, human IgG1, kappa, homodimerized: alteration in both H chains; also called Ho Ab I332_06M) heavy: not shown light: DIVMTQSPLSLPVTPGEPASISCQASESLVHSNRNTYLHWYLQKPGQSPQLLIYKVSNRFSGVPDRFSGSGSGTDFTLKISRVEAEDVGVYYCSQNTHVPPTFGQGTKVEIERTVAAPSVFIFPPSDEQLKSGTASVVCLLNNFYPREAKVQWKVDNALQSGNSQESVTEQDSKDSTYSLSSTLTLSKADYEKHKVYACEVTHQGLSSPVTKSFNRGEC
106 % of control	GpH7-B3 variant A330_01G/GpL16-k0 (antibody, human IgG1, kappa, homodimerized: alteration in both H chains; also called Ho Ab A330_01G) heavy: not shown light: DIVMTQSPLSLPVTPGEPASISCQASESLVHSNRNTYLHWYLQKPGQSPQLLIYKVSNRFSGVPDRFSGSGSGTDFTLKISRVEAEDVGVYYCSQNTHVPPTFGQGTKVEIERTVAAPSVFIFPPSDEQLKSGTASVVCLLNNFYPREAKVQWKVDNALQSGNSQESVTEQDSKDSTYSLSSTLTLSKADYEKHKVYACEVTHQGLSSPVTKSFNRGEC
107 % of control	GpH7-B3 variant G237_20W/GpL16-k0 (antibody, human IgG1, kappa, homodimerized: alteration in both H chains; also called Ho Ab G237_20W) heavy: not shown light: DIVMTQSPLSLPVTPGEPASISCQASESLVHSNRNTYLHWYLQKPGQSPQLLIYKVSNRFSGVPDRFSGSGSGTDFTLKISRVEAEDVGVYYCSQNTHVPPTFGQGTKVEIERTVAAPSVFIFPPSDEQLKSGTASVVCLLNNFYPREAKVQWKVDNALQSGNSQESVTEQDSKDSTYSLSSTLTLSKADYEKHKVYACEVTHQGLSSPVTKSFNRGEC
120 % of control	GpH7-B3 variant K326_20W/GpL16-k0 (antibody, human IgG1, kappa, homodimerized: alteration in both H chains; also called Ho Ab K326_20W) heavy: not shown light: DIVMTQSPLSLPVTPGEPASISCQASESLVHSNRNTYLHWYLQKPGQSPQLLIYKVSNRFSGVPDRFSGSGSGTDFTLKISRVEAEDVGVYYCSQNTHVPPTFGQGTKVEIERTVAAPSVFIFPPSDEQLKSGTASVVCLLNNFYPREAKVQWKVDNALQSGNSQESVTEQDSKDSTYSLSSTLTLSKADYEKHKVYACEVTHQGLSSPVTKSFNRGEC
113 % of control	GpH7-B3 variant G237_04F/GpL16-k0 (antibody, human IgG1, kappa, homodimerized: alteration in both H chains; also called Ho Ab G237_04F) heavy: not shown light: DIVMTQSPLSLPVTPGEPASISCQASESLVHSNRNTYLHWYLQKPGQSPQLLIYKVSNRFSGVPDRFSGSGSGTDFTLKISRVEAEDVGVYYCSQNTHVPPTFGQGTKVEIERTVAAPSVFIFPPSDEQLKSGTASVVCLLNNFYPREAKVQWKVDNALQSGNSQESVTEQDSKDSTYSLSSTLTLSKADYEKHKVYACEVTHQGLSSPVTKSFNRGEC
122 % of control	GpH7-B3 variant H268_01G/GpL16-k0 (antibody, human IgG1, kappa, homodimerized: alteration in both H chains; also called Ho Ab H268_01G) heavy: not shown light: DIVMTQSPLSLPVTPGEPASISCQASESLVHSNRNTYLHWYLQKPGQSPQLLIYKVSNRFSGVPDRFSGSGSGTDFTLKISRVEAEDVGVYYCSQNTHVPPTFGQGTKVEIERTVAAPSVFIFPPSDEQLKSGTASVVCLLNNFYPREAKVQWKVDNALQSGNSQESVTEQDSKDSTYSLSSTLTLSKADYEKHKVYACEVTHQGLSSPVTKSFNRGEC
104 % of control	GpH7-B3 variant A327_10E/GpL16-k0 (antibody, human IgG1, kappa, homodimerized: alteration in both H chains; also called Ho Ab A327_10E) heavy: not shown light: DIVMTQSPLSLPVTPGEPASISCQASESLVHSNRNTYLHWYLQKPGQSPQLLIYKVSNRFSGVPDRFSGSGSGTDFTLKISRVEAEDVGVYYCSQNTHVPPTFGQGTKVEIERTVAAPSVFIFPPSDEQLKSGTASVVCLLNNFYPREAKVQWKVDNALQSGNSQESVTEQDSKDSTYSLSSTLTLSKADYEKHKVYACEVTHQGLSSPVTKSFNRGEC
120 % of control	GpH7-B3 variant A327_09D/GpL16-k0 (antibody, human IgG1, kappa, homodimerized: alteration in both H chains; also called Ho Ab A327_09D) heavy: not shown light: DIVMTQSPLSLPVTPGEPASISCQASESLVHSNRNTYLHWYLQKPGQSPQLLIYKVSNRFSGVPDRFSGSGSGTDFTLKISRVEAEDVGVYYCSQNTHVPPTFGQGTKVEIERTVAAPSVFIFPPSDEQLKSGTASVVCLLNNFYPREAKVQWKVDNALQSGNSQESVTEQDSKDSTYSLSSTLTLSKADYEKHKVYACEVTHQGLSSPVTKSFNRGEC
133 % of control	GpH7-B3 variant K326_04F/GpL16-k0 (antibody, human IgG1, kappa, homodimerized: alteration in both H chains; also called Ho Ab K326_04F) heavy: not shown light: DIVMTQSPLSLPVTPGEPASISCQASESLVHSNRNTYLHWYLQKPGQSPQLLIYKVSNRFSGVPDRFSGSGSGTDFTLKISRVEAEDVGVYYCSQNTHVPPTFGQGTKVEIERTVAAPSVFIFPPSDEQLKSGTASVVCLLNNFYPREAKVQWKVDNALQSGNSQESVTEQDSKDSTYSLSSTLTLSKADYEKHKVYACEVTHQGLSSPVTKSFNRGEC
131 % of control	GpH7-B3 variant K326_08L/GpL16-k0 (antibody, human IgG1, kappa, homodimerized: alteration in both H chains; also called Ho Ab K326_08L) heavy: not shown light: DIVMTQSPLSLPVTPGEPASISCQASESLVHSNRNTYLHWYLQKPGQSPQLLIYKVSNRFSGVPDRFSGSGSGTDFTLKISRVEAEDVGVYYCSQNTHVPPTFGQGTKVEIERTVAAPSVFIFPPSDEQLKSGTASVVCLLNNFYPREAKVQWKVDNALQSGNSQESVTEQDSKDSTYSLSSTLTLSKADYEKHKVYACEVTHQGLSSPVTKSFNRGEC
134 % of control	GpH7-B3 variant K326_15Y/GpL16-k0 (antibody, human IgG1, kappa, homodimerized: alteration in both H chains; also called Ho Ab K326_15Y) heavy: not shown light: DIVMTQSPLSLPVTPGEPASISCQASESLVHSNRNTYLHWYLQKPGQSPQLLIYKVSNRFSGVPDRFSGSGSGTDFTLKISRVEAEDVGVYYCSQNTHVPPTFGQGTKVEIERTVAAPSVFIFPPSDEQLKSGTASVVCLLNNFYPREAKVQWKVDNALQSGNSQESVTEQDSKDSTYSLSSTLTLSKADYEKHKVYACEVTHQGLSSPVTKSFNRGEC
